Consider two substances from PMC7948958.

For orientation: koff means the rate constant with which the complex falls apart. In general, kon refers to the rate constant with which the complex forms.

Assay [1] has as its target rabbit skeletal actin filaments (rabbit) (UniProt P68135).
For assay [2], the target named is pyrene-labeled rabbit skeletal actin filaments (rabbit) (UniProt P68135). Nature of the assay: other fluorescence titration; stopped-flow, quenching of pyrene-actin fluorescence; 0.05-0.3 μM EGFP-M15-2IQ mixed with 0.5-3 μM pyrene actin; with saturating ADP (0.5 mM in the text, 1 mM in the legend), apyrase omitted; apparent rate constants from linear fit of kobs against [actin], KD …; 20-mM Mops (pH 7.0), 100-mM KCl, 5-mM MgCl2, 0.1-mM EGTA, 20 °C.

Assay [3] concerns the target rabbit skeletal actin filaments (rabbit) (UniProt P68135). This is another data set of the same source.
Assay [4] deals with pyrene-labeled rabbit skeletal actin filaments (rabbit) (UniProt P68135). Description: other fluorescence titration; stopped-flow, quenching of pyrene-actin fluorescence; 0.05-0.3 μM EGFP-M15-2IQ mixed with 0.5-3 μM pyrene actin; nucleotide-free (apyrase-treated); apparent rate constants from linear fit of kobs against [actin], KD calculated as k-6/k+6; 20-mM Mops (pH 7.0), 100-mM KCl, 5-mM MgCl2, 0.1-mM EGTA, 20 °C.

As for “EGFP-M15-2IQ motor domain complex (EGFP-M15-2IQ:ELC:RLC) (from UniProt Q9QZZ4-3 1-743; P60661 1-151)”, in assay [1], the actin-activated steady-state ATPase (NADH assay, 10-mM KCl, 20 °C), K ATPase; myosin from Sf9 coexpressing UNC45A (baculovirus) was found to be 0.0061 mM and the actin-activated steady-state ATPase (NADH assay, 10-mM KCl, 20 °C), K ATPase; myosin from Sf9 coexpressing UNC45B (baculovirus) turned out to be 0.0104 mM. In assay [2], the Kd came out at 310 nM, the off-rate (koff) was found to be 0.55 s⁻¹ and the kon was found to be 1.75e+06 M⁻¹ s⁻¹. In addition, the actin-activated phosphate release (double-mixing stopped flow, MDCC-PbP), apparent association rate constant K9·k′+4 of M·ADP·Pi with actin, from the fast phase against [actin] up to 50 μM in assay [3] worked out at 130000 M⁻¹ s⁻¹. In assay [4], the Kd was 200 nM, the off-rate constant (koff) was 0.65 s⁻¹ and the kon was 3.18e+06 M⁻¹ s⁻¹.
“M15-2IQ-EGFP motor domain complex (M15-2IQ-EGFP:ELC:RLC) (from UniProt Q9QZZ4-3 1-743; P60661 1-151)”: in assay [1], the actin-activated steady-state ATPase (NADH assay, 10-mM KCl, 20 °C), K ATPase; myosin from the Sf9-UNC45A cell line was 0.0052 mM and the actin-activated steady-state ATPase (NADH assay, 10-mM KCl, 20 °C), K ATPase; myosin from the Sf9-UNC45B cell line was determined as 0.007 mM.
